Reference: patent US20080027001A1 (published 2008)
Bridges are numbered along the chain shown (N, C = ends).

Tests used:
[1] = molecular target: Recombinant MAG-Fc chimera (R&D Systems); assay: cell-based or functional assay
[2] = molecular target: T1, mutant NgR1 EM7 (K277D/R279D) (human, UniProt Q9BZR6 27-447); assay: Nogo-66-AP (10 µg/ml) on transfected COS-7 cells, AP luminescence
T1 construct: whole, on cells
T1 sequence (looked up): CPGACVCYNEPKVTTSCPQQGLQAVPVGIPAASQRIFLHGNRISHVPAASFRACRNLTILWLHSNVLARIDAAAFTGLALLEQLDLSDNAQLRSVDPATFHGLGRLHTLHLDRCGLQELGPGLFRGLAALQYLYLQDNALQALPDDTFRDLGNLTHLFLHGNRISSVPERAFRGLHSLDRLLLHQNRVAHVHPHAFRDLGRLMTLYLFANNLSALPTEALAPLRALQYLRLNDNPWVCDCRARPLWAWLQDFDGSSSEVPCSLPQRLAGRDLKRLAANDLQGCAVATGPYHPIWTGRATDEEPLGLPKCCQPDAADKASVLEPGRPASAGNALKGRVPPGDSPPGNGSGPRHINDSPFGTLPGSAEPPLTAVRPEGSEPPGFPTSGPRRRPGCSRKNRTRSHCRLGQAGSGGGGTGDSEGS
Description: (§1) The remaining cells were separately plated and assayed for surface expression of the NgR1 proteins by immunocytochemistry (Example 1.9) and for total NgR1 protein levels by Western blot analysis (Example 1.8). […] The next day, wells were rinsed once with HBAH (Hank's Balanced Salt Solution (HBSS) containing bovine serum albumin (0.5 mg/ml), NaN₃ (0.1%), and 20 mM HEPES pH 7.0) at room temperature followed by incubation with 100 μl of AP fusion protein (MAG-AP or Nogo-66-AP) diluted to a final concentration of 10 μg/ml in HBAH for 90 minutes. Wells were then washed six times with gentle shaking in HBAH at room temperature, five minutes each wash. Cells were then fixed with acetone-formaldehyde (60%-3%, in 20 mM HEPES, pH 7.0) for 15 seconds at room temperature, then washed three times for five minutes each with HBSS. Binding of AP-tagged ligands was measured using the Great EscAPe SEAP Kit (BD Biosciences) following the manufacturer's recommended protocol. Briefly, after aspirating HBSS, 60 μl of dilution buffer was added to each well, the plates were sealed, and then incubated at 65° C. for 90 min. Plates were cooled on ice and then 60 μl of assay buffer was added per well and incubated at room temperature for five minutes. Sixty microliters of diluted CSPD® substrate (Applied Biosystems, Foster City, Calif.) was then added per well, incubated for 10 minutes at room temperature, and then read on an LMAXII luminometer (Molecular Devices). Absolute binding numbers were corrected by subtracting average binding values obtained from mock-transfected controls. Binding was further corrected for sample-to-sample variations in transfection efficiency by normalizing to beta-galactosidase activity. Beta-galactosidase activity was measured using the luminescent beta-gal detection kit II (BD Biosciences) following the manufacturer's recommended protocol. Three independent binding experiments were conducted with six to eleven replicates per experiment. Background-subtracted, beta-galactosidase-corrected binding values were expressed relative to the wild type receptor.

[3] = molecular target: T2, mutant NgR1 EM8 (K277A, R279A) (human, UniProt Q9BZR6 27-447); assay: as above
T2 construct: whole, on cells
T2 sequence (looked up): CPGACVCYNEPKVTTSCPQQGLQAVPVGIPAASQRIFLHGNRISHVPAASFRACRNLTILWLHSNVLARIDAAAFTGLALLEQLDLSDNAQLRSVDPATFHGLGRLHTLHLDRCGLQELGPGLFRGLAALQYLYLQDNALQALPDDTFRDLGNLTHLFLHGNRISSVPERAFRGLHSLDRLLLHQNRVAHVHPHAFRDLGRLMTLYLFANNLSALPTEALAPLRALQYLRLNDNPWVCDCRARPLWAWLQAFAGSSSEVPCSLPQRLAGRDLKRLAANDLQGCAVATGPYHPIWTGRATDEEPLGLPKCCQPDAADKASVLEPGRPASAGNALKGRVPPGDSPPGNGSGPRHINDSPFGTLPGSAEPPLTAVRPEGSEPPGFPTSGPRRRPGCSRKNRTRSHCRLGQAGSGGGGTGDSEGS
Description: as §1

[4] = molecular target: T3, mutant NgR1 EM10 (K277A) (human, UniProt Q9BZR6 27-447); assay: as above
T3 construct: whole, on cells
T3 sequence (looked up): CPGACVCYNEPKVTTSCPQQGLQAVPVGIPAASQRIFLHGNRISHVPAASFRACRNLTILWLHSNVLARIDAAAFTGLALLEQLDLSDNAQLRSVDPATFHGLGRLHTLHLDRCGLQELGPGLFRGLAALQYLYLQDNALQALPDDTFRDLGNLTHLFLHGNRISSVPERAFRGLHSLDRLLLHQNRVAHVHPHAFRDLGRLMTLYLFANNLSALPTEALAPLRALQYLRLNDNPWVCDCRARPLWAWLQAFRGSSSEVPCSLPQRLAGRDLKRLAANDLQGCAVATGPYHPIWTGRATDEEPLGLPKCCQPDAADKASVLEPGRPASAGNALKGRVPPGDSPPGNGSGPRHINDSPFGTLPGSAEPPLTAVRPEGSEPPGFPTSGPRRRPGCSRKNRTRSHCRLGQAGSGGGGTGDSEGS
Description: as §1

[5] = molecular target: T4, mutant NgR1 EM11 (R279A) (human, UniProt Q9BZR6 27-447); assay: as above
T4 construct: whole, on cells
T4 sequence (looked up): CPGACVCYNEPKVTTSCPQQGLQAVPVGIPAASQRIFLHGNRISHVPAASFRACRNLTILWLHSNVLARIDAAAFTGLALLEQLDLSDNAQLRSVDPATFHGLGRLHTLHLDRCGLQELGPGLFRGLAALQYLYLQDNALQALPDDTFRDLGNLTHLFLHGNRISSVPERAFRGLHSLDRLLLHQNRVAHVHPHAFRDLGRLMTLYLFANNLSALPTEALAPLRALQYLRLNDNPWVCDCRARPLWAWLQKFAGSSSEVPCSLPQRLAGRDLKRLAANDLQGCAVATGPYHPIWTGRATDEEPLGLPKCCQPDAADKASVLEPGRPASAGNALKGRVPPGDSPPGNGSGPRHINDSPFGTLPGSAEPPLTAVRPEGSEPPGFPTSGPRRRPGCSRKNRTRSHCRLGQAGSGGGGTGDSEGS
Description: as §1

[6] = molecular target: T1, mutant NgR1 EM7 (K277D/R279D); assay: MAG-AP (10 µg/ml) on transfected COS-7 cells, AP luminescence, corrected for background and transfection efficiency
Description: as §1

[7] = molecular target: T2, mutant NgR1 EM8 (K277A, R279A); assay: as above
Description: as §1

[8] = molecular target: T4, mutant NgR1 EM11 (R279A); assay: as above
Description: as §1

Ac-CQKARGC-NH2 (disulfide 1-7 (inferred)) [NRL2bA2 (N-Ac-CQKARGC-NH2)]
neurite outgrowth, MAG-Fc at 20 µg/ml: reduction of peptide efficacy against NRL2b [1]: ~2 fold

B1: Nogo-66-AP(C47V) (ligand)
chain: IIPVEEENPDFWNREAAEALGAAKKLQPAQTAAKNLIIFLGDGMGVSTVTAARILKGQKKDKLGPEIPLAMDRFPYVALSKTYNVDKHVPDSGATATAYLCGVKGNFQTIGLSAAARFNQCNTTRGNEVISVMNRAKKAGKSVGVVTTTRVQHASPAGTYAHTVNRNWYSDADVPASARQEGCQDIATQLISNMDIDVILGGGRKYMFRMGTPDPEYPDDYSQGGTRLDGKNLVQEWLAKRQGARYVWNRTELMQASLDPSVTHLMGLFEPGDMKYEIHRDSTLDPSLMEMTEAALRLLSRNPRGFFLFVEGGRIDHGHHESRAYRALTETIMFDDAIERAGQLTSEEDTLSLVTADHSHVFSFGGYPLRGSSIFGLAPGKARDRKAYTVLLYGNGPGYVLKDGARPDVTESESGSPEYRQQSAVPLDEETHAGEDVAVFARGPQAHLVHGVQEQTFIAHVMAFAACLEPYTACDLAPPAGTTDAAHPGRIYKGVIQAIQKSDEGHPFRAYLESEVAISEELVQKYSNSALGHVNVTIKELRRLFLVDDLVDSLKHHHHHH
notes: Any secretion signal in front of AP is not described; also called alkaline phosphatase-labeled Nogo-66
binding result [2]: binds
binding result [3]: binds
binding result [4]: binds
binding result [5]: binds

B2: MAG-AP (N-terminal human myelin associated glycoprotein amino acids 1-516, C-terminal alkaline phosphatase domain amino acids 23-511, six C-terminal histidine … (ligand)
chain: GHWGAWMPSSISAFEGTCVSIPCRFDFPDELRPAVVHGVWYFNSPYPKNYPPVVFKSRTQVVHESFQGRSRLLGDLGLRNCTLLLSNVSPELGGKYYFRGDLGGYNQYTFSEHSVLDIVNTPNIVVPPEVVAGTEVEVSCMVPDNCPELRPELSWLGHEGLGEPAVLGRLREDEGTWVQVSLLHFVPTREANGHRLGCQASFPNTTLQFEGYASMDVKYPPVIVEMNSSVEAIEGSHVSLLCGADSNPPPLLTWMRDGTVLREAVAESLLLELEEVTPAEDGVYACLAENAYGQDNRTVGLSVMYAPWKPTVNGTMVAVEGETVSILCSTQSNPDPILTIFKEKQILSTVIYESELQLELPAVSPEDDGEYWCVAENQYGQRATAFNLSVEFAPVLLLESHCAAARDTVQCLCVVKSNPEPSVAFELPSRNVTVNESEREFVYSERSGLVLTSILTLRGQAQAPPRVICTARNLYGAKSLELPFQGAHRLMWAKIGPIIPVEEENPDFWNREAAEALGAAKKLQPAQTAAKNLIIFLGDGMGVSTVTAARILKGQKKDKLGPEIPLAMDRFPYVALSKTYNVDKHVPDSGATATAYLCGVKGNFQTIGLSAAARFNQCNTTRGNEVISVMNRAKKAGKSVGVVTTTRVQHASPAGTYAHTVNRNWYSDADVPASARQEGCQDIATQLISNMDIDVILGGGRKYMFRMGTPDPEYPDDYSQGGTRLDGKNLVQEWLAKRQGARYVWNRTELMQASLDPSVTHLMGLFEPGDMKYEIHRDSTLDPSLMEMTEAALRLLSRNPRGFFLFVEGGRIDHGHHESRAYRALTETIMFDDAIERAGQLTSEEDTLSLVTADHSHVFSFGGYPLRGSSIFGLAPGKARDRKAYTVLLYGNGPGYVLKDGARPDVTESESGSPEYRQQSAVPLDEETHAGEDVAVFARGPQAHLVHGVQEQTFIAHVMAFAACLEPYTACDLAPPAGTTDAAHPGHHHHHH
notes: range 1-516;range 23-511; also called alkaline phosphatase-labeled MAG; MAG-AP fusion protein
percent reduction in binding relative to wild type NgR1 [6]: 57%
percent reduction in binding relative to wild type NgR1 [7]: 58%
percent reduction in binding relative to wild type NgR1 [8]: 36%
